The supplement of paper PMC10567573

B1: ANKRD44 (parent)
chain: FHCIETLVTTGANVNETDDWGRTA

Variants of: B1
Assay: protein stability index of a GFP-peptide fusion (GPS, HEK-293T) (PSI 1-6); higher = more stable
Conditions: c terminus: a fixed tail appended
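Further: lentivirally expressed fusions sorted by FACS into six bins by GFP to DsRed ratio, PSI derived from sequencing read proportions per bin multiplied by bin number.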

Variant	protein stability index
FHCIETLVTTGANVNATDDWGRTA	1.98
FHCIETLVTTGANVNLTDDWGRTA	1.8
FHCIETLVTTGANVNDTDDWGRTA	2.17
FHCIETLVTTGANVNMTDDWGRTA	1.56
FHCIETLVTTGANVNETEDWGRTA	2.09
FHCIETLVTTGANVNETRDWGRTA	2.17
FHCIETLVTTGANVNETADWGRTA	2.07
FHCIETLVTTGANVNETIDWGRTA	1.95
FHCIETLVTTGANVNETWDWGRTA	2.07
FHCIETIVTTGANVNETDDWGRTA	2.23
FHCIETYVTTGANVNETDDWGRTA	3.58
FHCIETAVTTGANVNETDDWGRTA	2.2
FHCIETTVTTGANVNETDDWGRTA	2.85
FHCIETCVTTGANVNETDDWGRTA	2.01
FHCIETPVTTGANVNETDDWGRTA	3.04
FHCIETMVTTGANVNETDDWGRTA	2.19
FHCIETEVTTGANVNETDDWGRTA	3.82
FHCIETLVTTGANVNETDTWGRTA	1.88
FHCIETLVTTGANVNETDAWGRTA	1.56
FHCIETLVTTGANVNETDRWGRTA	1.66
FHCIETLVTTGANVNETDWWGRTA	2.44
FHCIETLVTTGANVNETDCWGRTA	2.15
FHCIETLVTTGANVNETDPWGRTA	2.26
FHCIEELVTTGANVNETDDWGRTA	2.69

Variant	protein stability index
FHCIETLVKTGANVNETDDWGRTA	2.83
FHCIETLVGTGANVNETDDWGRTA	2.7
FHCIETLVITGANVNETDDWGRTA	2.67
FHCIETLVTTGKNVNETDDWGRTA	2.07
FHCIETLVTTGMNVNETDDWGRTA	2.14
FHCIETLVTTGCNVNETDDWGRTA	1.1
FHCIETLVTTGSNVNETDDWGRTA	2.73
FHCIETLVTTGQNVNETDDWGRTA	2.09
FHCIETLVTTGYNVNETDDWGRTA	1.88
FHCIETLVTTGHNVNETDDWGRTA	2.1
FHCIETLVTTGFNVNETDDWGRTA	2.61
FHCIETLVTTGANVNETDDGGRTA	2.52
FHCIETLVTTGANVNETDDQGRTA	2.66
FHCIETLVTTGANVNETDDSGRTA	3
FHCIETLVTTGANVNETDDFGRTA	2.66
FHWIETLVTTGANVNETDDWGRTA	2.47
FHNIETLVTTGANVNETDDWGRTA	2.21
FHGIETLVTTGANVNETDDWGRTA	2.89
FHAIETLVTTGANVNETDDWGRTA	1.79
FHCIETLVTTGANVNETDDWGRIA	1.86
FHCIETLVTTGANVNETDDWGRDA	2.71
FHCIETLVTTGANVNETDDWGRFA	2.06
FHCIETLVTTGANVNETDDWGRSA	2.31
FHCIETLVTTGANVNETDDWGRKA	2.26

Variant	protein stability index
FHCIETLVTTGANVNETDDWGRMA	1.38
FHCIETLVTTGANVHETDDWGRTA	2.17
FHCIETLVTTGANVTETDDWGRTA	3.27
FHCIETLVTTGANVAETDDWGRTA	1.76
FHCIITLVTTGANVNETDDWGRTA	2.98
FHCIPTLVTTGANVNETDDWGRTA	2.43
NHCIETLVTTGANVNETDDWGRTA	4.5
GHCIETLVTTGANVNETDDWGRTA	4.25
IHCIETLVTTGANVNETDDWGRTA	3.13
CHCIETLVTTGANVNETDDWGRTA	2.18
FHCIETLVTTKANVNETDDWGRTA	2.29
FHCIETLMTTGANVNETDDWGRTA	2.2
FHCIETLHTTGANVNETDDWGRTA	2.45
FHCIETLTTTGANVNETDDWGRTA	2.29
FHCIETLPTTGANVNETDDWGRTA	3.48
FHCIETLQTTGANVNETDDWGRTA	3
FHCIETLSTTGANVNETDDWGRTA	3.12
FHCIETLNTTGANVNETDDWGRTA	2.86
FHCIETLVTTGANVNESDDWGRTA	2.61
FHCIETLVTTGANVNEIDDWGRTA	2.24
FHCIETLVTTGANVNEHDDWGRTA	1.83
FHCIETLVTTGANKNETDDWGRTA	2.31
FHCIETLVTTGANRNETDDWGRTA	2.61
FHCIETLVTCGANVNETDDWGRTA	1.96

Variant	protein stability index
FHCIETLVTQGANVNETDDWGRTA	2.63
FHCIETLVTTGANVNETDDWGRTK	2.46
FHCIETLVTTGANVNETDDWGRTM	2.39
FHCIETLVTTGANVNETDDWGRTH	2.39
FHCIETLVTTGANVNETDDWGRTW	1.16
FHCIETLVTTGANVNETDDWGRTS	2.06
FHCWETLVTTGANVNETDDWGRTA	3.86
FHCGETLVTTGANVNETDDWGRTA	2.66
FHCMETLVTTGANVNETDDWGRTA	2.16
FHCIETLVTTGANVNETDDWGMTA	2.27
FHCIETLVTTGANVNETDDWGTTA	2.46
FHCIETLVTTGANVNETDDWGLTA	2.5
FHCIETLVTTGANVNETDDWGKTA	2.36
FHCIETLVTTGANVNETDDWGSTA	2.71
FHCIETLVTTGANVNETDDWGWTA	1.49
FHCIETLVTTGAIVNETDDWGRTA	2.31
FHCIETLVTTGAFVNETDDWGRTA	3.16
FHCIETLVTTGAEVNETDDWGRTA	1.69
FHCIETLVTTGAAVNETDDWGRTA	2.56
FDCIETLVTTGANVNETDDWGRTA	4.54
FSCIETLVTTGANVNETDDWGRTA	3.36
FNCIETLVTTGANVNETDDWGRTA	3.37
